The values below come from patent publication EP4596580A1 (Staidson (Beijing) Biopharmaceuticals Co., Ltd., dated 2025).

Broadly, the EC50 is the concentration that produces a half-maximal response. The IC50 is the concentration that gives 50% inhibition. Usually Kd stands for a measure of binding affinity in units of concentration. One may read the koff as the rate constant with which the complex falls apart. The kon is a measure of how fast the partners come together.

The target of assay [1] is LIGHT on the surface of HEK293-LIGHT stable cells (human, UniProt O43557 1-240). The experiment in a line: cell-based or functional assay.
The target of assay [2] is T1, His-human LIGHT (human).
T1 chain: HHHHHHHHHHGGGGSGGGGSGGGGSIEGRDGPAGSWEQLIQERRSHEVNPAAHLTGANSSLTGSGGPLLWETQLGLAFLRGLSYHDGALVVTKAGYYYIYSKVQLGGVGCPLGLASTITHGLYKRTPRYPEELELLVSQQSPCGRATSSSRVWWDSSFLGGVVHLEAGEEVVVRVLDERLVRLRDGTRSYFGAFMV
The experiment in a line: cell-based or functional assay.

The target of assay [3] is T1, His-human LIGHT. The experiment in a line: ELISA, His-huLIGHT coated.
Assay [4] deals with T2, hFc-human LIGHT (human).
T2 construct: also called hFc-huLIGHT
The experiment in a line: competition ELISA, HVEM-His coated, hFc-huLIGHT 1 µg/ml. In general terms: In an ELISA, binding on a coated surface is turned into a signal by an enzyme label.

For assay [5], the target named is T1, His-human LIGHT. The experiment in a line: cell-based or functional assay.
Assay [6] addresses T1, His-human LIGHT. Nature of the assay: cell-based or functional assay.
Assay [7] deals with T2, hFc-human LIGHT. Nature of the assay: competition ELISA, LTβR-His coated, hFc-huLIGHT added.
In assay [8] the target is T2, hFc-human LIGHT. The experiment in a line: competition ELISA, LTβR-His coated, hFc-huLIGHT 1 µg/ml.
In assay [9] the target is T1, His-human LIGHT. Nature of the assay: cell-based or functional assay.
Assay [10] has as its target T3, His-cynomolgus monkey LIGHT (cynomolgus monkey).
T3 construct: also called His-cynoLIGHT
T3 chain: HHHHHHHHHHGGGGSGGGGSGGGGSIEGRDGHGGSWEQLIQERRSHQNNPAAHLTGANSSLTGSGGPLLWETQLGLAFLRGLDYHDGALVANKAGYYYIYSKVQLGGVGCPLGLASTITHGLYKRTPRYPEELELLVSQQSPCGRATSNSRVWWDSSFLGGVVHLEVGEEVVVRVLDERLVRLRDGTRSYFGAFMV
The experiment in a line: ELISA, His-cynoLIGHT coated.

Assay [11] has as its target T3, His-cynomolgus monkey LIGHT. The experiment in a line: ELISA, His-cynoLIGHT coated.
The target of assay [12] is T1, His-human LIGHT. The experiment in a line: SPR, Biacore 8K, antibody on CM5 chip. On the technique in general: In SPR one partner is held on a chip, and binding of the other changes the refractive index at the surface.

B1: LT-m37 (antibody, human IgG4, V domains shown)
VH: QVQLKQSGAELVRPGTSVKVSCKASGYSFTGYFINWVKQSHGKSLEWIGRIYPYNVNTFYNQNFKGRATLTADKSSSTAHMELLSLTSEDSAVYYCGRGTHYYGSSGAMDYWGQGTSVTVSS
VL: DILLTQSHKFMSTSVGDRVSITCKASQNVGTAVAWYQQKPGQSPKLLIYSASNRYTGVPDRFTGSGSGTDFTLTISNMQSEDLADYFCQQYSSYPYTFGGGTKLEIK
With B1, in [1], the “IC50, LTβR NF-κB luciferase reporter, HEK293-LIGHT cells” value stood at 2.28 nM. Besides, the “IC50, HVEM NF-κB luciferase reporter (293T-HVEM-NF-κB-Luc), free LIGHT” value with His-human LIGHT [2] amounted to 0.264 µg/mL. The EC50 with His-human LIGHT [3] was found to be 0.0774 µg/mL; in assay [10], 0.157 nM. Further, the “IC50 ratio (IC50 of the antibody / IC50 of F19)” value with hFc-human LIGHT [4] was 0.435; in the assay with hFc-human LIGHT [8], 0.301. Further, in the assay with His-human LIGHT [5], the “IC50, HVEM NF-κB luciferase reporter, free LIGHT” value turned out to be 0.402 nM. In addition, the “IC50, LIGHT induced MMP-9 production in BEAS-2B bronchial epithelial cells” value with His-human LIGHT [6] turned out to be 0.359 µg/mL. This molecule also had an IC50 with hFc-human LIGHT [7] of 0.866 nM. The “IC50, LTβR NF-κB luciferase reporter, free LIGHT” value with His-human LIGHT [9] turned out to be 0.257 nM.

B2: LT-m33 (antibody, human IgG4, V domains shown)
VH: QVQLKQSGAELVKPGASVRLSCKTSGYTFTNYYVYWVKQRPGQGLEWIGEINPTNGDPNFNEKFKSKATLTVDKSSSTAYMHLSSLTSEDSAVYYCTRSNWDYGNAMDFWGQGTSVTVSS
VL: DIVMTQSPASLAVSLGQRATISCKASQSVDFDGDGYMNWYQQKPGQPPKLLIYKASHLDSGIPARFSGSGSGTDFTLNIHPVEEEDAATYYCQQSIEDPLTFGDGTRLEIK
B2: the “IC50, HVEM NF-κB luciferase reporter (293T-HVEM-NF-κB-Luc), free LIGHT” value with His-human LIGHT [2] was found to be 0.207 µg/mL. In the assay with His-human LIGHT [3], this molecule returned an EC50 of 0.0221 µg/mL. In assay [11], the binding result is recorded as “binds”. In the assay with His-human LIGHT [12], binding was characterised by a dissociation constant (Kd) of 0.0235 nM, the koff came out at 4.07e-05 s⁻¹ and the kon was found to be 1.73e+06 M⁻¹ s⁻¹.
